Values quoted from earlier work, collected in publication PMC5979509.

Target: Neuropilin-1 (Homo sapiens) (UniProt O14786)
Assay: radioligand binding

Chain of UniProt O14786 (O14786 22-923): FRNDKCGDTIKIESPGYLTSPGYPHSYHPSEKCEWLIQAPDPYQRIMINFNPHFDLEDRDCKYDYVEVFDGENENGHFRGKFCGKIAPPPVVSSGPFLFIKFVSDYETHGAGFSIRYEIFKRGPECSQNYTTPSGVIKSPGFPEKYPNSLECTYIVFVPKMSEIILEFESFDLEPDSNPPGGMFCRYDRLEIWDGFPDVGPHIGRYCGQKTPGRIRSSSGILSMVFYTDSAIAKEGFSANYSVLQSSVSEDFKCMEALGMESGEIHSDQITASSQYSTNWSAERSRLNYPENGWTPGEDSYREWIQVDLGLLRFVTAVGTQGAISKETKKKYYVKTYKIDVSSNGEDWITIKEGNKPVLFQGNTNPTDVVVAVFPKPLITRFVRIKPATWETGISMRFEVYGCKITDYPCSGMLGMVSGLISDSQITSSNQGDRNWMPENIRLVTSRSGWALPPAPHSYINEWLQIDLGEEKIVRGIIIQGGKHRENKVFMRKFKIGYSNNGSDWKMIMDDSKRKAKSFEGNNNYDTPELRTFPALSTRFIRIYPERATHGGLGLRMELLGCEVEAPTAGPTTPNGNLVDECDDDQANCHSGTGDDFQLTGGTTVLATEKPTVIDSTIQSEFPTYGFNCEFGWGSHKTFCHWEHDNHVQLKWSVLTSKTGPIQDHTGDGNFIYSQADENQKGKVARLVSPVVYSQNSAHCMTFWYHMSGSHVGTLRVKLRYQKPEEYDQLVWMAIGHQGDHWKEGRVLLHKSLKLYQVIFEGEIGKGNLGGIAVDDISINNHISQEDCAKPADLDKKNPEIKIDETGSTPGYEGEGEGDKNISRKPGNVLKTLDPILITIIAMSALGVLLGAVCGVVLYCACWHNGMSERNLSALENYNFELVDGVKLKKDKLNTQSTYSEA

VEGF165a (from UniProt P15692)
Kd: < 3 nM
